# Laboratory results taken from US20180177842A1 (CANIMGUIDE THERAPEUTICS, published 2018).
# B1: KKLDTFFVKLSLFYER (SEQ ID NO: 514) (peptide)
# peptide: KKLDTFFVKLSLFYER
# B2: KKLDTFFVNLSLFTER (SEQ ID NO: 518) (peptide)
# peptide: KKLDTFFVNLSLFTER
# notes: also called 31136
# B3: KKLDTFRVKLSLFTER (SEQ ID NO: 432) (peptide)
# peptide: KKLDTFRVKLSLFTER
# B4: KKLDTFFVKLSQFTER (SEQ ID NO: 355) (peptide)
# peptide: KKLDTFFVKLSQFTER
# B5: KKLDTFLVKLSLFTER (SEQ ID NO: 320) (peptide)
# peptide: KKLDTFLVKLSLFTER
# B6: KKLDTIFVKLSLFTER (SEQ ID NO: 314) (peptide)
# peptide: KKLDTIFVKLSLFTER
# B7: KKLDTFHVKLSLFTER (SEQ ID NO: 433) (peptide)
# peptide: KKLDTFHVKLSLFTER
# B8: KKLDTKFVKLSLFTER (SEQ ID NO: 460) (peptide)
# peptide: KKLDTKFVKLSLFTER
# B9: KKLDTFFVKLSMFTER (SEQ ID NO: 353) (peptide)
# peptide: KKLDTFFVKLSMFTER
# B10: KKLDTPFVKLSLFTER (SEQ ID NO: 317) (peptide)
# peptide: KKLDTPFVKLSLFTER
# B11: KKLDTFFVKLSSFTER (SEQ ID NO: 357) (peptide)
# peptide: KKLDTFFVKLSSFTER
# B12: KKLDTGFVKLSLFTER (SEQ ID NO: 446) (peptide)
# peptide: KKLDTGFVKLSLFTER
# B13: KKLDTFFVKRSLFTER (SEQ ID NO: 340) (peptide)
# peptide: KKLDTFFVKRSLFTER
# B14: KKLDTFFVKLSLHTER (SEQ ID NO: 364) (peptide)
# peptide: KKLDTFFVKLSLHTER
# B15: KKLDTFFVKLSVFTER (SEQ ID NO: 359) (peptide)
# peptide: KKLDTFFVKLSVFTER
# B16: KKLDTFNVKLSLFTER (SEQ ID NO: 443) (peptide)
# peptide: KKLDTFNVKLSLFTER
# B17: KKLDTFFVKPSLFTER (SEQ ID NO: 338) (peptide)
# peptide: KKLDTFFVKPSLFTER
# B18: KKLDTFYVKLSLFTER (SEQ ID NO: 463) (peptide)
# peptide: KKLDTFYVKLSLFTER
# B19: KKLDTFFVKLVLFTER (SEQ ID NO: 419) (peptide)
# peptide: KKLDTFFVKLVLFTER
# B20: KKLDTFFVKLYLFTER (SEQ ID NO: 415) (peptide)
# peptide: KKLDTFFVKLYLFTER
# B21: KKLDTNFVKLSLFTER (SEQ ID NO: 316) (peptide)
# peptide: KKLDTNFVKLSLFTER
# B22: KKLDTFFVKLSLITER (SEQ ID NO: 365) (peptide)
# peptide: KKLDTFFVKLSLITER
# B23: KKLDTFFVKLTLFTER (SEQ ID NO: 349) (peptide)
# peptide: KKLDTFFVKLTLFTER
# B24: KKLDTFFVKVSLFTER (SEQ ID NO: 343) (peptide)
# peptide: KKLDTFFVKVSLFTER
# B25: KKLDTFFVKLSNFTER (SEQ ID NO: 354) (peptide)
# peptide: KKLDTFFVKLSNFTER
# B26: KKLDTFFVVLSLFTER (SEQ ID NO: 523) (peptide)
# peptide: KKLDTFFVVLSLFTER
# B27: KKLDTFTVKLSLFTER (SEQ ID NO: 324) (peptide)
# peptide: KKLDTFTVKLSLFTER
# B28: KKLDTFGVKLSLFTER (SEQ ID NO: 96) (peptide)
# peptide: KKLDTFGVKLSLFTER
# B29: KKLDTFVVKLSLFTER (SEQ ID NO: 325) (peptide)
# peptide: KKLDTFVVKLSLFTER
# B30: KKLDTRFVKLSLFTER (SEQ ID NO: 486) (peptide)
# peptide: KKLDTRFVKLSLFTER
# B31: KKLDTFPVKLSLFTER (SEQ ID NO: 437) (peptide)
# peptide: KKLDTFPVKLSLFTER
# B32: KKLDTFFVSLSLFTER (SEQ ID NO: 511) (peptide)
# peptide: KKLDTFFVSLSLFTER
# B33: KKLDTFFVKLSLYTER (SEQ ID NO: 503) (peptide)
# peptide: KKLDTFFVKLSLYTER
# B34: KKLDTFFVKWSLFTER (SEQ ID NO: 482) (peptide)
# peptide: KKLDTFFVKWSLFTER
# B35: KKLDTFFVKLWLFTER (SEQ ID NO: 472) (peptide)
# peptide: KKLDTFFVKLWLFTER
# B36: KKLDTFFVKLSPFTER (SEQ ID NO: 497) (peptide)
# peptide: KKLDTFFVKLSPFTER
# B37: KKLDTHFVKLSLFTER (SEQ ID NO: 466) (peptide)
# peptide: KKLDTHFVKLSLFTER
# B38: KKLDTFFVKQSLFTER (SEQ ID NO: 339) (peptide)
# peptide: KKLDTFFVKQSLFTER
# B39: KKLDTFIVKLSLFTER (SEQ ID NO: 397) (peptide)
# peptide: KKLDTFIVKLSLFTER
# B40: KKLDTFFVKLSLLTER (SEQ ID NO: 366) (peptide)
# peptide: KKLDTFFVKLSLLTER
# B41: KKLDTFFVKLSLTTER (SEQ ID NO: 373) (peptide)
# peptide: KKLDTFFVKLSLTTER
# B42: KKLDTFFVKSSLFTER (SEQ ID NO: 341) (peptide)
# peptide: KKLDTFFVKSSLFTER
# B43: KKLDTFFVKTSLFTER (SEQ ID NO: 342) (peptide)
# peptide: KKLDTFFVKTSLFTER
# B44: KKLDTFFVWLSLFTER (SEQ ID NO: 526) (peptide)
# peptide: KKLDTFFVWLSLFTER
# B45: KKLDTFFVKLSLRTER (SEQ ID NO: 371) (peptide)
# peptide: KKLDTFFVKLSLRTER
# B46: KKLDTFQVKLSLFTER (SEQ ID NO: 322) (peptide)
# peptide: KKLDTFQVKLSLFTER
# B47: KKLDTFFVKLSLPTER (SEQ ID NO: 369) (peptide)
# peptide: KKLDTFFVKLSLPTER
# B48: KKLDTFFVKLSLMTER (SEQ ID NO: 367) (peptide)
# peptide: KKLDTFFVKLSLMTER
# B49: KKLDTFFVKLSLSTER (SEQ ID NO: 372) (peptide)
# peptide: KKLDTFFVKLSLSTER
# B50: KKLDTFFVKNSLFTER (SEQ ID NO: 337) (peptide)
# peptide: KKLDTFFVKNSLFTER
# B51: KKLDTFFVKYSLFTER (SEQ ID NO: 344) (peptide)
# peptide: KKLDTFFVKYSLFTER
# B52: KKLDTFFVKLSYFTER (SEQ ID NO: 475) (peptide)
# peptide: KKLDTFFVKLSYFTER
# B53: KKLDTFFVQLSLFTER (SEQ ID NO: 469) (peptide)
# peptide: KKLDTFFVQLSLFTER
# B54: KKLDTFFVKLSLVTER (SEQ ID NO: 374) (peptide)
# peptide: KKLDTFFVKLSLVTER
# B55: KKLDTFFVKLSTFTER (SEQ ID NO: 358) (peptide)
# peptide: KKLDTFFVKLSTFTER
# B56: KKLDTLFVKLSLFTER (SEQ ID NO: 411) (peptide)
# peptide: KKLDTLFVKLSLFTER
# B57: KKLDTFSVKLSLFTER (SEQ ID NO: 323) (peptide)
# peptide: KKLDTFSVKLSLFTER
# B58: KKLDTFFVKLSLNTER (SEQ ID NO: 368) (peptide)
# peptide: KKLDTFFVKLSLNTER
# B59: KKLDTFWVKLSLFTER (SEQ ID NO: 425) (peptide)
# peptide: KKLDTFWVKLSLFTER
# B60: KKLDTFFVKLSLQTER (SEQ ID NO: 370) (peptide)
# peptide: KKLDTFFVKLSLQTER
# B61: KKLDTFFVMLSLFTER (SEQ ID NO: 509) (peptide)
# peptide: KKLDTFFVMLSLFTER
# B62: KKLDTMFVKLSLFTER (SEQ ID NO: 315) (peptide)
# peptide: KKLDTMFVKLSLFTER
# B63: KKLDTFFVKLSLWTER (SEQ ID NO: 375) (peptide)
# peptide: KKLDTFFVKLSLWTER
# B64: KKLDTFFVRLSLFTER (SEQ ID NO: 331) (peptide)
# peptide: KKLDTFFVRLSLFTER
# B65: KKLDTFFVTLSLFTER (SEQ ID NO: 445) (peptide)
# peptide: KKLDTFFVTLSLFTER
# B66: KKLDTFFVKLSLGTER (SEQ ID NO: 363) (peptide)
# peptide: KKLDTFFVKLSLGTER
# B67: KKLDTQFVKLSLFTER (SEQ ID NO: 410) (peptide)
# peptide: KKLDTQFVKLSLFTER
# B68: KKLDTFFVKLSRFTER (SEQ ID NO: 356) (peptide)
# peptide: KKLDTFFVKLSRFTER
# B69: KKLDTFFVKLSWFTER (SEQ ID NO: 360) (peptide)
# peptide: KKLDTFFVKLSWFTER
# B70: KKLDTFFVKMSLFTER (SEQ ID NO: 336) (peptide)
# peptide: KKLDTFFVKMSLFTER
# B71: KKLDTFMVKLSLFTER (SEQ ID NO: 321) (peptide)
# peptide: KKLDTFMVKLSLFTER
# Target: T1, P3028 (VFDEFKPLVEEPQNLIK, SEQ ID NO: 185), His-tagged (human)
# T1 construct: Synthetic fragment of human serum albumin (positions 397-413); used in solution as His-tagged peptide PGE73; also called PGE73; not shown: His-tag
# T1 peptide: VFDEFKPLVEEPQNLIK
# Assay: PEPSCAN ELISA; peptide on chip, His-P3028 added;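 further: peroxidase color development with ABTS and H2O2 substrate, OD405 imaged by CCD camera with image processing and taken as raw values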
# Procedure: After washing, the peroxidase substrate 2,2′-azine-di-3-ethylbenzthiazoline sulfonate (ABTS) and 2 μL of 3% H2O2 were added. The binding capacity of the mAb was measured as a color development at 405 nm (optical density, OD405). The color development was quantified with a charge-coupled device (CCD)—camera and an image processing system.
# The OD405-values obtained by a CCD-camera was considered as raw data values (“rampo values,” “rampo units,” or “rampo scores”). […] First the CCD-camera made a picture of the card before peroxidase coloring and then again a picture after the peroxidase coloring. […] These values were copied into an excel file and labeled as a raw data file. […] Sometimes a well can contain an air-bubble resulting in a false-positive value. If manual inspection of the cards detect an air-bubble the value are set to 0 for well.
row,Binder,RAMPO Score [rampo units]
1,B1,270
2,B2,256
3,B3,369
4,B4,651
5,B5,517
6,B6,466
7,B7,364
8,B8,337
9,B9,499
10,B10,497
11,B11,478
12,B12,347
13,B13,439
14,B14,1050
15,B15,545
16,B16,348
17,B17,436
18,B18,334
19,B19,392
20,B20,402
21,B21,446
22,B22,468
23,B23,520
24,B24,658

row,Binder,RAMPO Score [rampo units]
1,B25,462
2,B26,248
3,B27,517
4,B28,347
5,B29,527
6,B30,309
7,B31,356
8,B32,274
9,B33,291
10,B34,316
11,B35,324
12,B36,297
13,B37,332
14,B38,470
15,B39,446
16,B40,448
17,B41,494
18,B42,351
19,B43,399
20,B44,245
21,B45,502
22,B46,511
23,B47,696
24,B48,1190

row,Binder,RAMPO Score [rampo units]
1,B49,635
2,B50,365
3,B51,382
4,B52,320
5,B53,330
6,B54,446
7,B55,437
8,B56,408
9,B57,700
10,B58,862
11,B59,380
12,B60,1140
13,B61,283
14,B62,467
15,B63,430
16,B64,374
17,B65,347
18,B66,531
19,B67,410
20,B68,483
21,B69,409
22,B70,460
23,B71,712
